In general, Kd refers to the free concentration of one partner at which half of the binding sites on the other are occupied at equilibrium, for simple one-to-one binding. Low readings indicate higher affinity, high ones lower affinity.

The source of these data is patent publication US20220281997A1 (published 2022).

Among the targets are AS588 VHH; AS675 VHH; AS200 VHH; AS519 VHH; AS325 VHH; AS656 VHH; AS988 VHH; AS673 VHH; AS154 VHH.
What all share (assay): SPR
(In general: In SPR one partner is held on a chip, and binding of the other changes the refractive index at the surface.)

For assay [1], the target named is His-tag camel-derived nanobody AS718 VHH-His.
Chain of His-tag camel-derived nanobody AS718 VHH-His (VHH, as listed by the source): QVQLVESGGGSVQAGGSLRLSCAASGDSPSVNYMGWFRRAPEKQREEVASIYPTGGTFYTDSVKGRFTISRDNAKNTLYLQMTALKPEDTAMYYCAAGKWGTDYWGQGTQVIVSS

Chain of AS588 VHH (VHH, as listed by the source): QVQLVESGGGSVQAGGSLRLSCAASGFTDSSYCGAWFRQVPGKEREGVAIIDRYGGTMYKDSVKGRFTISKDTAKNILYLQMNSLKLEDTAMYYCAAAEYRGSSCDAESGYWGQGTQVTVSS
Chain of AS675 VHH (VHH, as listed by the source): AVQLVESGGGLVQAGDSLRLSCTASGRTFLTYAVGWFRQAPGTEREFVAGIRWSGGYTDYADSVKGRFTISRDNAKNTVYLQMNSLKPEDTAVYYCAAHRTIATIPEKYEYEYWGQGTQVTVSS
Chain of AS673 VHH (VHH, as listed by the source): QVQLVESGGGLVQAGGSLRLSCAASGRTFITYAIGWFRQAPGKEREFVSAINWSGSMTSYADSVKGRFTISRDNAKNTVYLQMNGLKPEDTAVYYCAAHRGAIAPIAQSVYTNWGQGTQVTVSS
Chain of AS656 VHH (VHH, as listed by the source): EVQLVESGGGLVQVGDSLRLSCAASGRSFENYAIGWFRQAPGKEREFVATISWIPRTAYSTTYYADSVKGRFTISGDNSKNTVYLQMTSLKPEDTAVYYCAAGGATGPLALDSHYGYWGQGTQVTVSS
Chain of AS200 VHH (VHH, as listed by the source): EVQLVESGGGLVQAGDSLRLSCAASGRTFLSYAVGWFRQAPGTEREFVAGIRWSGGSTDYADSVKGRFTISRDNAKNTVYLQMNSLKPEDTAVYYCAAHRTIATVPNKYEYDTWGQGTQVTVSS
Chain of AS325 VHH (VHH, as listed by the source): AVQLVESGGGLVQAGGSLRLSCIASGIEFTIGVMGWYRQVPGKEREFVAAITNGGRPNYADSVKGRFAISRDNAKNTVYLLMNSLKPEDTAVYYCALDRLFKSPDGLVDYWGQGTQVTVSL
Chain of AS519 VHH (VHH, as listed by the source): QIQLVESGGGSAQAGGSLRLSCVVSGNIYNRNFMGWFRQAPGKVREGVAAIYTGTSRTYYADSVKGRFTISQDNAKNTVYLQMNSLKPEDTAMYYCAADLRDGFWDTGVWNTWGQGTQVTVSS
Chain of AS988 VHH (VHH, as listed by the source): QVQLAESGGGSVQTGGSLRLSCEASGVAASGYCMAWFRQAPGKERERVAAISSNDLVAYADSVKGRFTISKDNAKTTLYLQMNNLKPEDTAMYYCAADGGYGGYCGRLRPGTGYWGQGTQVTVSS
Chain of AS154 VHH (VHH, as listed by the source): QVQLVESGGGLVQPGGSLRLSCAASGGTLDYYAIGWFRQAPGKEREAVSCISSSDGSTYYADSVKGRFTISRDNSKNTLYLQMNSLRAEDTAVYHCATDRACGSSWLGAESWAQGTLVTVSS

B1: R166.C5 (antibody, V domains shown)
VH: QSVEESGGRLVTPGTPLTLTCTVSGFSLRNFAMSWVRQAPGKGLEWIGIIYSGGTRDYATWAKGRFTISKTSTTVDLKMTSPTTEDTATYFCARDRSPDYSAAFLLWGQGTLVTVSS
VL: IVMTQTPSSKSVPVGDTVTINCQASESVYSNNHLAWFQQKPGQPPKLLIYSASTLESGVPSRFKGSGSGTQFTLTISGVQCDDAATYYCAGYKSSDTDGTSFGGGTEVVVKG
Consider B1, for which the Kd in the assay with AS588 VHH is 7.09 pM; with AS675 VHH, 34.5 pM; with AS200 VHH, 11.8 pM; with AS519 VHH, 1.66 pM; with AS325 VHH, 4.04 pM; with AS656 VHH, 1.34 pM. For the same molecule, the Kd with AS988 VHH was determined as 7.08 pM; in [1], 3.47 pM; in the assay with AS673 VHH, 4.36 pM; with AS154 VHH, 402 pM.
